Data taken from US20200362033A1 (Daiichi Sankyo, published 2020).

How the values were obtained:
[1] = target: T1, human CD147 variant 2 expressed on CHO-K1 cells (pcDNA-DEST40-CD147v2) (human, UniProt P35613 140-385); assay: flow cytometry, CHO-K1 cells transfected with human CD147v2, antibody 10 µg/ml, anti-mouse IgG-FITC (Example 1)-8)
T1 construct: also called CHO-K1-hCD147v2; human CD147 expressing CHO-K1 cells
T1 sequence: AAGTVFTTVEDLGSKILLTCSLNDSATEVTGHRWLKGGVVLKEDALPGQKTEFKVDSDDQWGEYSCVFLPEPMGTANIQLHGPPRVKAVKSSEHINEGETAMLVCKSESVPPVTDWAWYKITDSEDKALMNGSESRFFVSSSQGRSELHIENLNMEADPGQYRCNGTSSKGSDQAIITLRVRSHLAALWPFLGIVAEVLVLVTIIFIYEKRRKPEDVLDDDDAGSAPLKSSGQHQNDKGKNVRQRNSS

[2] = target: T2, human-cynomolgus monkey chimeric CD147 hCD147-mu3, on CHO-K1 cells (human, UniProt P35613 140-385); assay: flow cytometry, transfected CHO-K1 cells
T2 construct: also called hCD147-mu3_pcDNA3.1; CD147 with mu3 mutation
T2 chain: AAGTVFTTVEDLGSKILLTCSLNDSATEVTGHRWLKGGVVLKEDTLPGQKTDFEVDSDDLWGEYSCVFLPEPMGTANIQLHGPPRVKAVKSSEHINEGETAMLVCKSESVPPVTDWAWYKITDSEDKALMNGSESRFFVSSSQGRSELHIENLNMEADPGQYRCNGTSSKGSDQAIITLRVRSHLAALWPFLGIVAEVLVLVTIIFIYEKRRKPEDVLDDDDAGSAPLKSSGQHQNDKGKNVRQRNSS

B1: LN22R8 (antibody, V domains shown)
VH: QIQLVQSGPELKKPGETVKISCKASGYTFTNYGMNWVKQAPGKGLKWMGWINTYTGEPTYADDFKGRFAFSLETSASTAYLQINNLKNEDTATYFCARGGYGNYGAGAMDYWGQGTSVTVSS
VL: DIQMTQSPSSLSASLGERVSLTCRASLEISGFLSWLQQKPDGTIKRLIYAASILDSGVPKRFSGSRSGSDYSLTISSLESEDFADYYCLQYASYPWTFGGGTKLEIKR
notes: also called mouse anti-human CD147 antibody (LN22R8)
B1: binds [1]; no binding (tested: 10 µg/ml) [2].

B2: 2P10F2 (antibody, V domains shown)
VH: EVQLQESGPGLVKPSQSLSLTCSVTGYSITSNYWGWIRKFPGNKMEWMGCITYSGGTSYNPSLKSRISITRDTSKNQFFLQLNSVTTEDTATYYCASSYTSGDVDYWGQGVMVTVSS
VL: DIQMTQSPASLSASLGETVSIECLASEGISNSLAWYQQKPGKSPQLLIYGASSLQDGVPSRFSGSGSGTQYSLKISGMQPEDEGVYYCQQGYKYPFTFGSGTKLEIKR
notes: also called 2P10F2 rat antibody
B2: no binding (tested: 10 µg/ml) [2].
